Experimental data published in patent US20190309085A1.

Biological target: CD16aV (human) (UniProt P08637)
Assay: BLI (Octet), His-captured hCD16aV, 1:1 model

Sequence of CD16aV (human) (P08637 17-208 F176V limits assumed): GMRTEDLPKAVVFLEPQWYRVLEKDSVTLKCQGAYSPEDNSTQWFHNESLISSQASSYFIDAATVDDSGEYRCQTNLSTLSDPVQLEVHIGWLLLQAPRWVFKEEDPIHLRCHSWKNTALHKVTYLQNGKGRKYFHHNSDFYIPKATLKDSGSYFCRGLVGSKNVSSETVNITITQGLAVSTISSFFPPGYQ

Kd: 580 nM
Substance: Fc-WT (antibody)
